Data: publication doi:10.1101/2022.05.31.494233 (bioRxiv, 2022)
Blank lines part the entries; values can stand above or below the molecule they belong to. Ends that are not written are not given here. * marks the point of attachment. Myristoyl = CCCCCCCCCCCCCC(=O)*

Key:
Assay in all cases: SPR
myrUSH3 D10R = molecular target: myrUSH3 D10R
myrUSH3 K5A = molecular target: myrUSH3 K5A
myrUSH3 K7A = molecular target: myrUSH3 K7A
[1] = molecular target: myristoylated Src N-terminal Regulatory Element (SNRE) of c-Src, wild type
SPR = molecular target: the molecule itself

fold increase of dimerization relative to WT (myrUSH3 D10R): 6 fold
Molecule: myrUSH3 D10R (domain or fragment)

reduction of dimer formation relative to WT (myrUSH3 K5A): 50%
reduction of the dimer population relative to WT at the same protein density (myrUSH3 K5A): 50%
Molecule: myrUSH3 K5A (domain or fragment)

reduction of dimer formation relative to WT (myrUSH3 K7A): 50%
reduction of the dimer population relative to WT at the same protein density (myrUSH3 K7A): 40%
Molecule: myrUSH3 K7A (domain or fragment)

stoichiometry N [1]: 2
Molecule: myristoylated Src N-terminal Regulatory Element (SNRE) of c-Src, wild type (domain or fragment)

Molecule: Myristoyl-GSNKSKPKDASQRRR (peptide, UniProt P12931-1 2-16, looked up) [myristoylated synthetic peptide with residues 2-16 of c-Src (entire SH4 domain), wild type]
binding result (SPR): binds

Molecule: Myristoyl-GSNRSRPRDASQRRR (peptide, UniProt P12931 2-16, looked up) [myrSH4 R5R7R9 (triple arginine)]
binding result (SPR): binds
